Test results as given in the RNAGym collection of RNA variant scans (doi:10.1093/molbev/msab373).

B1: Azoarcus group I ribozyme (parent)
chain: GUGCCUUGCGCCGGGAAACCACGCAAGGGAUGGUGUCAAAUUCGGCGAAACCUAAGCGCCCGCCCGGGCGUAUGGCAACGCCGAGCCAAGCUUCGGCGCCUGCGCCGAUGAAGGUGUAGAGACUAGACGGCACCCACCUAAGGCAAACGCUAUGGUGAAGGCAUAGUCCAGGGAGUGGCGAAAGUCACACAAACCGG

Variants of: B1
Assay: reverse-splicing fitness (ratio to wild type); higher = more active; in vitro selection; Mg2+ level not given
How it was run: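 An in vitro group I ribozyme library with randomized positions was T7-transcribed and gel-purified. In triplicate, 10 pmol RNA in EPPS pH 7.5 was reacted with 50 pmoles of a 30-nt RNA substrate for 1 h at 37 °C across several added MgCl2 levels (1–48 mM), then stopped with EDTA. Products were reverse transcribed from a substrate-complementary primer, PCR-amplified and sequenced (HiSeq 4000). Fitness is a variant's read proportion after selection over that before, normalised to wild type.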

Q: With C82U A111U A145C as the variant, how does the reverse-splicing fitness read?
A: Its reverse-splicing fitness is 0.295.

Q: For C82U A111U A145U, which reverse-splicing fitness is on record?
A: Its reverse-splicing fitness is 0.329.

Q: For C82U A111U A145G, which reverse-splicing fitness is on record?
A: The reverse-splicing fitness was 0.332.

Q: Which reverse-splicing fitness does the source give for C82U A111U A120U C150G C169U U176A here?
A: The reverse-splicing fitness was 0.00294.

Q: With C82U A111U A120U C150G C169U U176C as the variant, how does the reverse-splicing fitness read?
A: The reverse-splicing fitness was 0.00377.

Q: For C82U A111U A120U C150G C169U U176G, which reverse-splicing fitness is on record?
A: The reverse-splicing fitness was 0.00264.

Q: Which reverse-splicing fitness does the source give for C82U A111U A120U A145U C169U U176C here?
A: The reverse-splicing fitness was 0.00278.

Q: With C82U A111U A120U A145U C169U U176G as the variant, how does the reverse-splicing fitness read?
A: Its reverse-splicing fitness is 0.00177.

Q: For C82U A111U A120U A145U C169U U176A, which reverse-splicing fitness is on record?
A: The reverse-splicing fitness was 0.00286.

Q: Which reverse-splicing fitness does the source give for C82U A111U A145G C169A U176A here?
A: Its reverse-splicing fitness is 0.0191.

Q: For C82U A111U A145G C169A U176G, which reverse-splicing fitness is on record?
A: The reverse-splicing fitness was 0.00582.

Q: For C82U A111U A145G C169A U176C, which reverse-splicing fitness is on record?
A: The reverse-splicing fitness was 0.0257.

Q: For C82U A111U A120U A145U C150U C169A, which reverse-splicing fitness is on record?
A: Its reverse-splicing fitness is 0.00254.

Q: Which reverse-splicing fitness does the source give for C82U A111U A120U A145U C150U C169U here?
A: Its reverse-splicing fitness is 0.00365.

Q: With C82U A111U A120U A145U C150U C169G as the variant, how does the reverse-splicing fitness read?
A: The reverse-splicing fitness was 0.00343.

Q: For C82U A111U A120U A145U C150U C169G U176A, which reverse-splicing fitness is on record?
A: Its reverse-splicing fitness is 0.00276.

Q: With C82U A111U A120U A145U C150U C169G U176C as the variant, how does the reverse-splicing fitness read?
A: Its reverse-splicing fitness is 0.00317.

Q: For C82U A111U A120U A145U C150U C169G U176G, which reverse-splicing fitness is on record?
A: Its reverse-splicing fitness is 0.00202.

Q: With C82U A111U A145U C150U C169G as the variant, how does the reverse-splicing fitness read?
A: Its reverse-splicing fitness is 0.00898.

Q: With C82U A111U A145U C150U C169A as the variant, how does the reverse-splicing fitness read?
A: The reverse-splicing fitness was 0.00818.

Q: For C82U A111U A145U C150U C169U, which reverse-splicing fitness is on record?
A: Its reverse-splicing fitness is 0.0104.

Q: For C82U A111U A145U C150U C169A U176C, which reverse-splicing fitness is on record?
A: The reverse-splicing fitness was 0.00869.

Q: For C82U A111U A145U C150U C169A U176A, which reverse-splicing fitness is on record?
A: Its reverse-splicing fitness is 0.0113.

Q: For C82U A111U A145U C150U C169A U176G, which reverse-splicing fitness is on record?
A: Its reverse-splicing fitness is 0.00627.

Q: With C82U A111U A145C C150U C169A U176G as the variant, how does the reverse-splicing fitness read?
A: The reverse-splicing fitness was 0.00651.

Q: For C82U A111U A145C C150U C169A U176A, which reverse-splicing fitness is on record?
A: Its reverse-splicing fitness is 0.0108.

Q: For C82U A111U A145C C150U C169A U176C, which reverse-splicing fitness is on record?
A: The reverse-splicing fitness was 0.00663.

Q: For C82U A111U A145G C150A, which reverse-splicing fitness is on record?
A: Its reverse-splicing fitness is 0.0405.

Q: For C82U A111U A145G C150G, which reverse-splicing fitness is on record?
A: Its reverse-splicing fitness is 0.0326.

Q: For C82U A111U A145G C150U, which reverse-splicing fitness is on record?
A: Its reverse-splicing fitness is 0.235.

Q: Which reverse-splicing fitness does the source give for C82U A111U A145G C150U C169U U176C here?
A: The reverse-splicing fitness was 0.013.

Q: For C82U A111U A145G C150U C169U U176A, which reverse-splicing fitness is on record?
A: Its reverse-splicing fitness is 0.0149.

Q: Which reverse-splicing fitness does the source give for C82U A111U A145G C150U C169U U176G here?
A: Its reverse-splicing fitness is 0.00571.

Q: For C82U A111U A120U C169A U176G, which reverse-splicing fitness is on record?
A: Its reverse-splicing fitness is 0.00193.

Q: For C82U A111U A120U C169A U176A, which reverse-splicing fitness is on record?
A: Its reverse-splicing fitness is 0.00285.

Q: With C82U A111U A120U C169A U176C as the variant, how does the reverse-splicing fitness read?
A: Its reverse-splicing fitness is 0.00317.

Q: With C82U A111U C150A C169A U176A as the variant, how does the reverse-splicing fitness read?
A: Its reverse-splicing fitness is 0.0195.

Q: For C82U A111U C150A C169A U176G, which reverse-splicing fitness is on record?
A: Its reverse-splicing fitness is 0.00696.

Q: Which reverse-splicing fitness does the source give for C82U A111U C150A C169A U176C here?
A: The reverse-splicing fitness was 0.0168.

Q: With C82U A111U A120U A145G U176G as the variant, how does the reverse-splicing fitness read?
A: The reverse-splicing fitness was 0.00331.

Q: With C82U A111U A120U A145G U176C as the variant, how does the reverse-splicing fitness read?
A: Its reverse-splicing fitness is 0.0112.

Q: With C82U A111U A120U A145G U176A as the variant, how does the reverse-splicing fitness read?
A: Its reverse-splicing fitness is 0.00732.

Q: For C82U A111U A145C C169G, which reverse-splicing fitness is on record?
A: Its reverse-splicing fitness is 0.0091.

Q: Which reverse-splicing fitness does the source give for C82U A111U A145C C169U here?
A: The reverse-splicing fitness was 0.0102.

Q: With C82U A111U A145C C169A as the variant, how does the reverse-splicing fitness read?
A: Its reverse-splicing fitness is 0.00671.

Q: For C82U A111U A145C C169G U176G, which reverse-splicing fitness is on record?
A: The reverse-splicing fitness was 0.00539.

Q: With C82U A111U A145C C169G U176A as the variant, how does the reverse-splicing fitness read?
A: Its reverse-splicing fitness is 0.0234.

Q: Which reverse-splicing fitness does the source give for C82U A111U A145C C169G U176C here?
A: Its reverse-splicing fitness is 0.0126.

Q: For C82U A111U A120U A145U C150A, which reverse-splicing fitness is on record?
A: Its reverse-splicing fitness is 0.00625.

Q: For C82U A111U A120U A145U C150G, which reverse-splicing fitness is on record?
A: The reverse-splicing fitness was 0.00727.

Q: With C82U A111U A120U A145U C150U as the variant, how does the reverse-splicing fitness read?
A: Its reverse-splicing fitness is 0.0175.

Q: For C82U A111U A145U C169A, which reverse-splicing fitness is on record?
A: Its reverse-splicing fitness is 0.00706.

Q: Which reverse-splicing fitness does the source give for C82U A111U A145U C169U here?
A: Its reverse-splicing fitness is 0.0106.

Q: Which reverse-splicing fitness does the source give for C82U A111U A145U C169G here?
A: The reverse-splicing fitness was 0.00791.

Q: For C82U A111U A120U A145U, which reverse-splicing fitness is on record?
A: Its reverse-splicing fitness is 0.0252.

Q: With C82U A111U A145C C150A C169U U176C as the variant, how does the reverse-splicing fitness read?
A: The reverse-splicing fitness was 0.00882.

Q: For C82U A111U A145C C150A C169U U176A, which reverse-splicing fitness is on record?
A: Its reverse-splicing fitness is 0.0138.

Q: With C82U A111U A145C C150A C169U U176G as the variant, how does the reverse-splicing fitness read?
A: Its reverse-splicing fitness is 0.00574.

Q: For C82U A111U A145U C150G C169G U176A, which reverse-splicing fitness is on record?
A: The reverse-splicing fitness was 0.00698.

Q: Which reverse-splicing fitness does the source give for C82U A111U A145U C150G C169G U176G here?
A: Its reverse-splicing fitness is 0.00587.

Q: For C82U A111U A145U C150G C169G U176C, which reverse-splicing fitness is on record?
A: The reverse-splicing fitness was 0.00578.

Q: For C82U A111U A145U C150A C169A U176A, which reverse-splicing fitness is on record?
A: Its reverse-splicing fitness is 0.0123.

Q: With C82U A111U A145U C150A C169A U176G as the variant, how does the reverse-splicing fitness read?
A: Its reverse-splicing fitness is 0.00735.

Q: For C82U A111U A145U C150A C169A U176C, which reverse-splicing fitness is on record?
A: Its reverse-splicing fitness is 0.00929.

Q: Which reverse-splicing fitness does the source give for C82U A111U A120U A145U C150G C169A U176C here?
A: Its reverse-splicing fitness is 0.00272.

Q: Which reverse-splicing fitness does the source give for C82U A111U A120U A145U C150G C169A U176A here?
A: The reverse-splicing fitness was 0.0028.

Q: Which reverse-splicing fitness does the source give for C82U A111U A120U A145U C150G C169A U176G here?
A: The reverse-splicing fitness was 0.00213.

Q: Which reverse-splicing fitness does the source give for C82U A111U A145G C150U C169A U176A here?
A: Its reverse-splicing fitness is 0.0156.

Q: For C82U A111U A145G C150U C169A U176C, which reverse-splicing fitness is on record?
A: The reverse-splicing fitness was 0.0159.

Q: For C82U A111U A145G C150U C169A U176G, which reverse-splicing fitness is on record?
A: The reverse-splicing fitness was 0.00684.

Q: With C82U A111U A120U C150A C169A U176A as the variant, how does the reverse-splicing fitness read?
A: The reverse-splicing fitness was 0.00372.

Q: With C82U A111U A120U C150A C169A U176C as the variant, how does the reverse-splicing fitness read?
A: The reverse-splicing fitness was 0.00306.

Q: For C82U A111U A120U C150A C169A U176G, which reverse-splicing fitness is on record?
A: Its reverse-splicing fitness is 0.00224.

Q: With C82U A111U A120U C150G C169A U176G as the variant, how does the reverse-splicing fitness read?
A: The reverse-splicing fitness was 0.00272.

Q: With C82U A111U A120U C150G C169A U176A as the variant, how does the reverse-splicing fitness read?
A: The reverse-splicing fitness was 0.004.

Q: With C82U A111U A120U C150G C169A U176C as the variant, how does the reverse-splicing fitness read?
A: Its reverse-splicing fitness is 0.00404.

Q: Which reverse-splicing fitness does the source give for C82U A111U A120U A145U C169A U176C here?
A: Its reverse-splicing fitness is 0.00301.

Q: Which reverse-splicing fitness does the source give for C82U A111U A120U A145U C169A U176G here?
A: The reverse-splicing fitness was 0.0017.

Q: For C82U A111U A120U A145U C169A U176A, which reverse-splicing fitness is on record?
A: The reverse-splicing fitness was 0.00233.

Q: Which reverse-splicing fitness does the source give for C82U A111U A120U C150U C169G U176A here?
A: The reverse-splicing fitness was 0.00732.

Q: Which reverse-splicing fitness does the source give for C82U A111U A120U C150U C169G U176C here?
A: Its reverse-splicing fitness is 0.00317.

Q: For C82U A111U A120U C150U C169G U176G, which reverse-splicing fitness is on record?
A: The reverse-splicing fitness was 0.00205.

Q: For C82U A111U A120U C169U U176A, which reverse-splicing fitness is on record?
A: Its reverse-splicing fitness is 0.00357.

Q: For C82U A111U A120U C169U U176C, which reverse-splicing fitness is on record?
A: The reverse-splicing fitness was 0.00325.
